For orientation: IC50 means the concentration that gives 50% inhibition. Read a high IC50 as lower potency.

Assay [1] addresses human ANG2 protein (623-AN-025/CF, R&D) (human) (UniProt O15123). Nature of the assay: flow cytometry, inhibition of human ANG2 (10 µg/mL) binding to HUVEC cells. Background: A flow cytometer gives signals particle by particle.
For assay [2] the target is unchanged. Nature of the assay: cell-based or functional assay.

Sequence of human ANG2 protein (623-AN-025/CF, R&D) (human) (O15123 19-496 limits assumed): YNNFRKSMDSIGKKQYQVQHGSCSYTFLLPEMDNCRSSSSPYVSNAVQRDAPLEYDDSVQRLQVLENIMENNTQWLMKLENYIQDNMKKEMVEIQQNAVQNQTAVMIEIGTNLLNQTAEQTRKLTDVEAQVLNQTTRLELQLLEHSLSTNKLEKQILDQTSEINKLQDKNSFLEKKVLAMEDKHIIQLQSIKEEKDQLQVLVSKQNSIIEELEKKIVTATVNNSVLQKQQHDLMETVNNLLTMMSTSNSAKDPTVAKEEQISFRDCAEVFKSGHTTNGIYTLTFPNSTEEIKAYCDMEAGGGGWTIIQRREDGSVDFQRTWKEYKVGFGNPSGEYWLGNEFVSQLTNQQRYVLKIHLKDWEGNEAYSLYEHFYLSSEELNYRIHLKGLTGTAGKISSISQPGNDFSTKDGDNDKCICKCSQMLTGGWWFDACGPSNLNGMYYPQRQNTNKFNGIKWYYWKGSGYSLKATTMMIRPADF

With “RG7716 (ATAD00534, Atagenix) (bispecific antibody)”, the IC50 in assay [1] turned out to be 53.9 nM. In assay [2], the IC50 of inhibition of AKT phosphorylation of human ANG2-dependent HUVEC cells worked out at 27.3 nM.

The record behind these values is patent US20240425575A1.
